# Experimental data published in publication doi:10.1101/2025.08.18.670856.
# Experiments:
# [1] = molecular target: FetA-HIS (wild type, from the plasmid AHSG-bio-His) (human) (UniProt P02765); assay: SPR
# [2] = molecular target: HIF-1α wild type used in SPR: C-terminal domain (CTD) of hypoxia-stable HIF-1α (579-826 residues) (human) (UniProt Q16665); assay: SPR
Kd [1],Kd [2],Molecule
90 nM,,HIF-1α 743D>L point mutant (from UniProt Q16665 1-826) (natural protein)
,23.4 nM,"FetA-HIS (wild type, from the plasmid AHSG-bio-His) (natural protein) APHGPGLIYRQPNCDDPETEEAALVAIDYINQNLPWGYKHTLNQIDEVKVWPQQPSGELFEIEIDTLETTCHVLDPTPVARCSVRQLKEHAVEGDCDFQLLKLDGKFSVVYAKCDSSPDSAEDVRKVCQDCPLLAPLNDTRVVHAAKAALAAFNAQNNGSNFQLEEISRAQLVPLPPSTYVEFTVSGTDCVAKEATEAAKCNLLAEKQYGFCKATLSEKLGGAEVAVTCMVFQTQPVSSQPQPEGANEAVPTPVVDPDAPPSPPLGAPGLPPAGSPPDSHVLLAAPPGHQLHRAHYDLRHTFMGVVSLGSPSGEVSHPRKTRTVVQPSVGAAAGPVVPPCPGRIRHFKV"
